Where “and” joins values, the source holds several entries; their conditions need not be identical. Equal values may be shown once.
B1: Cyclin-dependent kinases regulatory subunit, P08463 (parent)
chain: MSKSGVPRLLTASERERLEPFIDQIHYSPRYADDEYEYRHVMLPKAMLKAIPTDYFNPETGTLRILQEEEWRGLGITQSLGWEMYEVHVPEPHILLFKREKDYQMKFSQQRGG

Variants of: B1
Conditions: Schizosaccharomyces pombe (strain 972 / ATCC 24843), pH 7.1, 25 °C, GdnHCl, Fluorescence, Tris-HCl, NaCl, reversible: yes, structure 1SCE, whole UniProt chain shown

## MSKSGVPRLLTASERERLEPFIDQIHYSPRYADDEYEYRHVMLPKAMLKAIPTDYFNPETGTLRILQEEEWRGLGITQSLGWEMYEVHVPEVHILLFKREKDYQMKFSQQRGG
transition: 2
  ddG of mutation (higher = less stable): 0.18 kcal/mol and 0.08 kcal/mol
  denaturant m value: 3.85 kcal/mol/M and 3.55 kcal/mol/M
  denaturant midpoint (higher = more stable): 1.86 M and 2.05 M
  unfolding free energy: 7.16 kcal/mol and 7.28 kcal/mol

## MSKSGVPRLLTASERERLEPFIDQIHYSPRYADDEYEYRHVMLPKAMLKAIPTDYFNPETGTLRILQEEEWRGLGITQSLGWEMYEVHVVEPHILLFKREKDYQMKFSQQRGG
transition: 2
  ddG of mutation (higher = less stable): 0.63 kcal/mol and 0.62 kcal/mol
  denaturant m value: 3.42 kcal/mol/M and 3.55 kcal/mol/M
  denaturant midpoint (higher = more stable): 1.96 M and 1.9 M
  unfolding free energy: 6.71 kcal/mol and 6.74 kcal/mol

## MSKSGVPRLLTASERERLEPFIDQIHYSPRYADDEYEYRHVMLPKAMLKAIPTDYFNPETGTLRILQEEEWRGLGITQSLGWEMYEVHVVEVHILLFKREKDYQMKFSQQRGG
transition: 2+2
  denaturant m value: 1.88 kcal/mol/M
  denaturant midpoint (higher = more stable): 4.14 M
  unfolding free energy: 7.8 kcal/mol
transition: 2
  denaturant m value: 3.42 kcal/mol/M and 3.31 kcal/mol/M
  denaturant midpoint (higher = more stable): 2.04 M and 1.67 M
  unfolding free energy: 6.97 kcal/mol and 5.52 kcal/mol
transition: 3
  denaturant m value: 1.7 kcal/mol/M and 3.39 kcal/mol/M
  denaturant midpoint (higher = more stable): 0.74 M and 2.08 M
